Results published in patent US20170073386A1.

Columns and labels:
[1] = target: murine GITR expressed on cells (mouse) (UniProt O35714); assay: cell-based or functional assay
[2] = target: murine GITR expressed on cells (mouse) (UniProt O35714); assay: flow cytometry after treatment of mice with mGITRL-FP IgG2a; competitor DTA-1 as stain

Chain of murine GITR expressed on cells (mouse) (O35714 20-228): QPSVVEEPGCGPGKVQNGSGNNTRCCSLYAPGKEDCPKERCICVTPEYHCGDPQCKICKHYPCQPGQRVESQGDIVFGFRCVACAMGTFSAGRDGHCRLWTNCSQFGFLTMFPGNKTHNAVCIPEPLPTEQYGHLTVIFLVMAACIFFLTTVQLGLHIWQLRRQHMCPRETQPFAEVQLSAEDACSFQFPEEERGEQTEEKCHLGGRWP

Row | Substance | EC50, GITR-dependent NFκB reporter gene cell assay (Jurkat mGITR) [1] | fold potency against DTA-1, GITR-dependent NFκB reporter gene cell assay [1] | reduction in GITR MFI (DTA-1 staining) on Tregs [2]
1 | DTA-1 anti-GITR antibody | 2.31 nM | – | –
2 | mGITRL-FP mIgG2a (Fc fusion) | 0.05 nM | 50 fold | > 75%
